The source of these data is FireProtDB (doi:10.1110/ps.8.9.1843).

The chains are these.
B1: Guanyl-specific ribonuclease Sa, P05798 (parent)
chain: DVSGTVCLSALPPEATDTLNLIASDGPFPYSQDGVVFQNRESVLPTQSYGYYHEYTVITPGARTRGTRRIITGEATQEDYYTGDHYATFSLIDQTC
B2: Guanyl-specific ribonuclease T1, P00651 (parent)
chain: MMYSKLLTLTTLLLPTALALPSLVERACDYTCGSNCYSSSDVSTAQAAGYQLHEDGETVGSNSYPHKYNNYEGFDFSVSSPYYEWPILSSGDVYSGGSPGADRVVFNENNQLAGVITHTGASGNNFVECT

Variants of B1 are the subject of series [1]. The following applies: Kitasatospora aureofaciens; pH 7; Thermal; CD; MOPS 30 mM; structure 1RGG; whole UniProt chain shown.
In series [2] the parent is B2. The following applies: Aspergillus oryzae (strain ATCC 42149 / RIB 40), 25 °C, Urea, CD, structure 1RN1, whole UniProt chain shown.

Regarding DVSGTVCLSALPPEATDTLNLIASKGPFPYSQDGVVFQNRESVLPTQSYGYYHEYTVITPGARTRGTRRIITGEATQEDYYTGDHYATFSLIDQTC [D25K], in series [1], the Tm was determined as 50.2 °C and the “unfolding enthalpy (van 't Hoff)” value was determined as 389 kJ/mol.

Regarding DVSGTVCLSALPPEATDTLNLIASDGPFPYSQDGVVFQNRESVLPTQSYGYYHEYTVITPGARTRGTRRIITGKATQEDYYTGDHYATFSLIDQTC [E74K], in series [1], the midpoint of thermal melting (Tm) was 51.1 °C and the “unfolding enthalpy (van 't Hoff)” value is 393 kJ/mol.

Turning to MMYSKLLTLTTLLLPTALALPSLVERACDYTCGSNCYSSSDVSTAQAAGYQLHEDGETVGSNSYPHKYNNYEGFAFSVSSPYYEWPILSSGDVYSGGSPGADRVVFNENNQLAGVITHTGASGNNFVECT [D75A], in series [2] (pH 2.5, glycine 30 mM), the denaturant m value was found to be 1.69 kcal/mol/M and the “denaturant midpoint (higher = more stable)” value stood at 3.42 M. Further, in series [2] (pH 7, MOPS 30 mM), the denaturant m value turned out to be 1.21 kcal/mol/M and the “denaturant midpoint (higher = more stable)” value is 5.67 M.

The Tm is the temperature at which the thermal transition is half complete.
